Assay results as given in the RNAGym collection of RNA variant scans (doi:10.1021/acssynbio.7b00057).

B1: Pistol ribozyme (parent)
chain: GGGUCGUUGUUCCAUAAUCGCGUGGAUAUGGCACGCAAGUUUCUACCGGGCACCGUAAAUGUCCGACUGGAGCCGUUCGGGCGGCUAUAAACAGACCUCAGGCCCGAAGCGUGGCGGCACCUGCCGCCGGUGGUAAAAAAGAUCGGAAGAGCACACGUCU

Variants of: B1
Assay: aptazyme ON/OFF ratio, guanine; higher = stronger switching; co-transcriptional cleavage with and without guanine

Variant | aptazyme ON/OFF ratio
U7G U8A G9U U11A C12G C13U | 1.04
U7G U8A G9U U11A C12G C13A | 1.06
U7G U8A G9U U11A C12G C13G | 1.06
U7G U8A G9U U10C U11A C12A | 1.12
U7G U8A G9U U10C U11A C12U | 1.11
U7G U8A G9U U10C U11A C12G | 1.13
U7G U8A G9U U10A U11C C12U C13U | 1.01
U7G U8A G9U U10A U11C C12U C13G | 1.07
U7G U8A G9U U10A U11C C12U C13A | 1.07
U7G U8A G9U U10G U11G C12U C13U | 1.12
U7G U8A G9U U10G U11G C12U C13G | 1.06
U7G U8A G9U U10G U11G C12U C13A | 1.04
U7G U8A G9U U10G C12U C13A | 1.05
U7G U8A G9U U10G C12U C13G | 1.03
U7G U8A G9U U10G C12U C13U | 1.13
U7G U8A G9U U11C C12A | 1.16
U7G U8A G9U U11C C12U | 1.19
U7G U8A G9U U11C C12G | 1.11
U7G U8A G9U U10A U11A C12G C13G | 1.09
U7G U8A G9U U10A U11A C12G C13A | 1.05
U7G U8A G9U U10A U11A C12G C13U | 1.06
U7G U8A G9U U10G U11G C12G C13A | 1.15
U7G U8A G9U U10G U11G C12G C13U | 1.05
U7G U8A G9U U10G U11G C12G C13G | 1.24

Variant | aptazyme ON/OFF ratio
U7G U8A G9U U10C U11C C12A C13G | 1.23
U7G U8A G9U U10C U11C C12A C13U | 1.09
U7G U8A G9U U10C U11C C12A C13A | 1.09
U7G U8A G9U U11G | 1.17
U7G U8A G9U U11C | 1.08
U7G U8A G9U U11A | 1.39
U7G U8A G9U U10G U11A C13G | 1.06
U7G U8A G9U U10G U11A C13A | 1.06
U7G U8A G9U U10G U11A C13U | 1.06
U7G U8A G9U U10G U11A C12U C13U | 1.02
U7G U8A G9U U10G U11A C12U C13G | 1.03
U7G U8A G9U U10G U11A C12U C13A | 1.11
U7G U8A G9C U11A C13U | 1.04
U7G U8A G9C U11A C13A | 1.05
U7G U8A G9C U11A C13G | 1.02
U7G U8A G9U U10C U11A | 1.41
U7G U8A G9U U10C U11G | 1.24
U7G U8A G9U U10C U11C | 1.06
U7G U8A G9U C12G C13G | 1.07
U7G U8A G9U C12G C13U | 1.17
U7G U8A G9U C12G C13A | 1.11
U7G U8A G9C U11G C12G | 1.04
U7G U8A G9C U11G C12U | 1.14
U7G U8A G9C U11G C12A | 1.03

Variant | aptazyme ON/OFF ratio
U7G U8A G9U U10A C13U | 1.02
U7G U8A G9U U10A C13A | 1.06
U7G U8A G9U U10A C13G | 1.03
U7G U8A G9C U11G | 1.04
U7G U8A G9C U11C | 1.05
U7G U8A G9U U10A U11C C12G | 1.09
U7G U8A G9U U10A U11C C12A | 1.07
U7G U8A G9U U10A U11C C12U | 1.03
U7G U8A G9C U11G C12U C13G | 1.07
U7G U8A G9C U11G C12U C13A | 1.05
U7G U8A G9C U11G C12U C13U | 1.19
U7G U8A G9U U10C U11C C12G C13A | 1.09
U7G U8A G9U U10C U11C C12G C13U | 1.06
U7G U8A G9U U10C U11C C12G C13G | 1.06
U7G U8A G9U U10G U11G C12A C13A | 1.07
U7G U8A G9U U10G U11G C12A C13U | 1.25
U7G U8A G9U U10G U11G C12A C13G | 1.09
U7G U8A G9U U10G U11A C12G C13A | 1.03
U7G U8A G9U U10G U11A C12G C13G | 1.05
U7G U8A G9U U10G U11A C12G C13U | 1.12
U7G U8A G9C U11C C12A C13G | 1.04
U7G U8A G9C U11C C12A C13A | 1.04
U7G U8A G9C U11C C12A C13U | 1.06
U7G U8A G9U U11A C12A C13A | 1.16

Variant | aptazyme ON/OFF ratio
U7G U8A G9U U11A C12A C13U | 1.15
U7G U8A G9U U11A C12A C13G | 1.11
U7G U8A G9U U11C C13G | 1.05
U7G U8A G9U U11C C13A | 1.1
U7G U8A G9U U11C C13U | 1.09
U7G U8A G9U U11G C12U C13U | 1.15
U7G U8A G9U U11G C12U C13G | 1.04
U7G U8A G9U U11G C12U C13A | 1.1
U7G U8A G9U U11C C12U C13G | 1.15
U7G U8A G9U U11C C12U C13U | 1.02
U7G U8A G9U U11C C12U C13A | 1.1
U7G U8A G9U U10A C12U | 1.03
U7G U8A G9U U10A C12G | 1.06
U7G U8A G9U U10A C12A | 1.05
U7G U8A G9U U10A U11C | 1.03
U7G U8A G9U U10A U11G | 1.09
U7G U8A G9U U10A U11A | 1.46
U7G U8A G9U U10G U11A C12A | 1.09
U7G U8A G9U U10G U11A C12G | 1.09
U7G U8A G9U U10G U11A C12U | 1.04
U7G U8A G9U U11A C13G | 1.02
U7G U8A G9U U11A C13U | 1.11
U7G U8A G9U U11A C13A | 1.09
U7G U8A G9U U10G U11C C12U C13A | 1.07

Variant | aptazyme ON/OFF ratio
U7G U8A G9U U10G U11C C12U C13G | 1.17
U7G U8A G9U U10G U11C C12U C13U | 1.08
U7G U8A G9C U11C C13A | 1.06
U7G U8A G9C U11C C13G | 1.05
U7G U8A G9C U11C C13U | 1.05
U7G U8A U10A C12U C13A | 1.24
U7G U8A U10A C12U C13U | 1.09
U7G U8A U10A C12U C13G | 1.28
U7G U8A G9U U10A U11G C12U C13A | 1.07
U7G U8A G9U U10A U11G C12U C13U | 1.02
U7G U8A G9U U10A U11G C12U C13G | 1.08
U7G U8A G9U U10C C13G | 1.06
U7G U8A G9U U10C C13A | 1.11
U7G U8A G9U U10C C13U | 1.38
U7G U8A G9U U10A U11C C13G | 1.02
U7G U8A G9U U10A U11C C13A | 1.04
U7G U8A G9U U10A U11C C13U | 1.02
U7G U8A G9U U10G U11C C12A C13U | 1.11
U7G U8A G9U U10G U11C C12A C13A | 1.05
U7G U8A G9U U10G U11C C12A C13G | 1.05
U7G U8A G9U C13U | 1.3
U7G U8A G9U C13A | 1.08
U7G U8A G9U C13G | 1.06
U7G U8A G9U U10A U11C C12A C13G | 1.02

Variant | aptazyme ON/OFF ratio
U7G U8A G9U U10A U11C C12A C13A | 1.1
U7G U8A G9U U10A U11C C12A C13U | 1.05
U7G U8A G9U U10C C12A C13U | 1.15
U7G U8A G9U U10C C12A C13A | 1.12
U7G U8A G9U U10C C12A C13G | 1.12
U7G U8A U10A U11A C12G C13U | 1.46
U7G U8A U10A U11A C12G C13G | 1.2
U7G U8A U10A U11A C12G C13A | 1.14
U7G U8A G9U U11G C13G | 1.02
U7G U8A G9U U11G C13U | 1.07
U7G U8A G9U U11G C13A | 1.07
U7G U8A G9U C12U | 1.18
U7G U8A G9U C12A | 1.06
U7G U8A G9U C12G | 1.1
U7G U8A U10A U11A C12U C13U | 1.31
U7G U8A U10A U11A C12U C13A | 1.22
U7G U8A U10A U11A C12U C13G | 1.29
U7G U8A G9U U10A C12G C13U | 1.04
U7G U8A G9U U10A C12G C13A | 1.05
U7G U8A G9U U10A C12G C13G | 1.07
U7G U8A G9U U10G U11C C12G C13G | 1.03
U7G U8A G9U U10G U11C C12G C13U | 1.21
U7G U8A G9U U10G U11C C12G C13A | 1.09
U7G U8A G9U U10A U11G C12G | 1.08

Variant | aptazyme ON/OFF ratio
U7G U8A G9U U10A U11G C12A | 1.06
U7G U8A G9U U10A U11G C12U | 1.16
U7G U8A G9C U11G C12A C13U | 1.06
U7G U8A G9C U11G C12A C13G | 1.06
U7G U8A G9C U11G C12A C13A | 1.05
U7G U8A G9C U11A C12G C13A | 1.04
U7G U8A G9C U11A C12G C13U | 1.04
U7G U8A G9C U11A C12G C13G | 1
U7G U8A G9U C12U C13U | 1.07
U7G U8A G9U C12U C13A | 1.06
U7G U8A G9U C12U C13G | 1.07
U7G U8A G9U U11C C12A C13U | 1.16
U7G U8A G9U U11C C12A C13G | 1.07
U7G U8A G9U U11C C12A C13A | 1.1
U7G U8A G9U U10C U11C C13U | 1.01
U7G U8A G9U U10C U11C C13A | 1.03
U7G U8A G9U U10C U11C C13G | 1.02
U7G U8A G9C U11A C12U C13U | 1.02
U7G U8A G9C U11A C12U C13A | 1.03
U7G U8A G9C U11A C12U C13G | 1.03
U7G U8A G9U U10C C12G C13U | 1.19
U7G U8A G9U U10C C12G C13G | 1.29
U7G U8A G9U U10C C12G C13A | 1.28
